# Molecular target: TrkB receptor (endogenous, at mouse motor nerve terminals) (mouse) (UniProt P15209)
# Assay: cell-based or functional assay
# Sequence of UniProt P15209 (P15209 32-821): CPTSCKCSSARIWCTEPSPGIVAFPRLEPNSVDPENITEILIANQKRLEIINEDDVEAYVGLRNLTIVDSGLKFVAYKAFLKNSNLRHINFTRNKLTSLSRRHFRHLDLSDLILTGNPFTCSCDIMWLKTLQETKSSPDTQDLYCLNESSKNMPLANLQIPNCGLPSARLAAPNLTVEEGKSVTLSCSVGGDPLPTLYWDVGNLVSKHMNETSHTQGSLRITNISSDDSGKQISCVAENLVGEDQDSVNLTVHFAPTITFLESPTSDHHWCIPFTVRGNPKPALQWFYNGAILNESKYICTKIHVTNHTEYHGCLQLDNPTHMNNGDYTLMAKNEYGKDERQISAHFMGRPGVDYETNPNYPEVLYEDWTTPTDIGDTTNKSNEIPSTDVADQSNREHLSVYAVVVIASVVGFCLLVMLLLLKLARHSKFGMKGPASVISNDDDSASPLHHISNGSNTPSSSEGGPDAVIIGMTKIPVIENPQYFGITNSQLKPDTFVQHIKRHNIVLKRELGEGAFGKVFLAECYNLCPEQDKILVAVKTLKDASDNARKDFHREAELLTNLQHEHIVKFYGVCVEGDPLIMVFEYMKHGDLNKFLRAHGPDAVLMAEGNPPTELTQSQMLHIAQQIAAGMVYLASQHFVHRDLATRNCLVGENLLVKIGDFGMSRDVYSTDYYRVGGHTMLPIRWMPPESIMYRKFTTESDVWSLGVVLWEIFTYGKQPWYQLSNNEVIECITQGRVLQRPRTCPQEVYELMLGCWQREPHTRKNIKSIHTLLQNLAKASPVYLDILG
Substance,"elevation in the level of GFP-TTC concentration at the NMJ (LAL), 100 ng BDNF [fold]","elevation in the level of GFP-TTC concentration at the NMJ (LAL), 250 ng BDNF [fold]",increase of GFP-TTC signal at the NMJ by BDNF after BoTx/A treatment [fold],"GFP-TTC localization at the NMJ, fold increase [fold]"
recombinant human Brain Derived Neurotrophic Factor (BDNF) (from UniProt P23560 129-247) (ligand),1.72,1.15,2.05,
recombinant human Neurotrophin 4 (NT-4) (from UniProt P34130 81-210) (ligand),,,,1.54
